Measured values: patent publication US20110118131A1 (published 2011)

Biological target: T1, IL-1β (UniProt P01584 117-269)
T1 construct: Antigen of XPA23
Test: Biacore, Fab periplasmic extract

Binder | fold difference in affinity against the original
XPA23 heavy chain G56L (Fab, V domains shown, Fab, periplasmic extract; also called C5A G56L) VH: EVQLLESGGGLVQPGGSLRLSCAASGFTFSKYFMFWVRQAPGKGLEWVSVISPSGLMTRYADSVKGRFTISRDNSKNTLYLQMNSLRAEDTAVYYCARVGYGGNSDYWGQGTLVTVSS VL: DIQMTQSPSSVSASVGDRLTIICRASQDINRWLAWYQQTPGNAPKLLIHSATSLQSGVPSRFSGSGSGTDFTLTINSLQPEDFATYYCQQADSFPLTFGGGTKVEIK | 1.41 fold
XPA23 heavy chain I51G (Fab, V domains shown, Fab, periplasmic extract; also called C5A I51G) VH: EVQLLESGGGLVQPGGSLRLSCAASGFTFSKYFMFWVRQAPGKGLEWVSVGSPSGGMTRYADSVKGRFTISRDNSKNTLYLQMNSLRAEDTAVYYCARVGYGGNSDYWGQGTLVTVSS VL: DIQMTQSPSSVSASVGDRLTIICRASQDINRWLAWYQQTPGNAPKLLIHSATSLQSGVPSRFSGSGSGTDFTLTINSLQPEDFATYYCQQADSFPLTFGGGTKVEIK | 0.94 fold
XPA23 heavy chain I51L (Fab, V domains shown, Fab, periplasmic extract; also called C5A I51L) VH: EVQLLESGGGLVQPGGSLRLSCAASGFTFSKYFMFWVRQAPGKGLEWVSVLSPSGGMTRYADSVKGRFTISRDNSKNTLYLQMNSLRAEDTAVYYCARVGYGGNSDYWGQGTLVTVSS VL: DIQMTQSPSSVSASVGDRLTIICRASQDINRWLAWYQQTPGNAPKLLIHSATSLQSGVPSRFSGSGSGTDFTLTINSLQPEDFATYYCQQADSFPLTFGGGTKVEIK | 0.79 fold
XPA23 heavy chain G103V (Fab, V domains shown, Fab, periplasmic extract; also called C5A G103V) VH: EVQLLESGGGLVQPGGSLRLSCAASGFTFSKYFMFWVRQAPGKGLEWVSVISPSGGMTRYADSVKGRFTISRDNSKNTLYLQMNSLRAEDTAVYYCARVGYGVNSDYWGQGTLVTVSS VL: DIQMTQSPSSVSASVGDRLTIICRASQDINRWLAWYQQTPGNAPKLLIHSATSLQSGVPSRFSGSGSGTDFTLTINSLQPEDFATYYCQQADSFPLTFGGGTKVEIK | 2.56 fold
XPA23 heavy chain G56T (Fab, V domains shown, Fab, periplasmic extract; also called C5A G56T) VH: EVQLLESGGGLVQPGGSLRLSCAASGFTFSKYFMFWVRQAPGKGLEWVSVISPSGTMTRYADSVKGRFTISRDNSKNTLYLQMNSLRAEDTAVYYCARVGYGGNSDYWGQGTLVTVSS VL: DIQMTQSPSSVSASVGDRLTIICRASQDINRWLAWYQQTPGNAPKLLIHSATSLQSGVPSRFSGSGSGTDFTLTINSLQPEDFATYYCQQADSFPLTFGGGTKVEIK | 1.11 fold
XPA23 heavy chain G100T (Fab, V domains shown, Fab, periplasmic extract; also called C5A G100T) VH: EVQLLESGGGLVQPGGSLRLSCAASGFTFSKYFMFWVRQAPGKGLEWVSVISPSGGMTRYADSVKGRFTISRDNSKNTLYLQMNSLRAEDTAVYYCARVTYGGNSDYWGQGTLVTVSS VL: DIQMTQSPSSVSASVGDRLTIICRASQDINRWLAWYQQTPGNAPKLLIHSATSLQSGVPSRFSGSGSGTDFTLTINSLQPEDFATYYCQQADSFPLTFGGGTKVEIK | 0.12 fold
XPA23 heavy chain I51A (Fab, V domains shown, Fab, periplasmic extract; also called C5A I51A) VH: EVQLLESGGGLVQPGGSLRLSCAASGFTFSKYFMFWVRQAPGKGLEWVSVASPSGGMTRYADSVKGRFTISRDNSKNTLYLQMNSLRAEDTAVYYCARVGYGGNSDYWGQGTLVTVSS VL: DIQMTQSPSSVSASVGDRLTIICRASQDINRWLAWYQQTPGNAPKLLIHSATSLQSGVPSRFSGSGSGTDFTLTINSLQPEDFATYYCQQADSFPLTFGGGTKVEIK | 1.04 fold
XPA23 heavy chain G56P (Fab, V domains shown, Fab, periplasmic extract; also called C5A G56P) VH: EVQLLESGGGLVQPGGSLRLSCAASGFTFSKYFMFWVRQAPGKGLEWVSVISPSGPMTRYADSVKGRFTISRDNSKNTLYLQMNSLRAEDTAVYYCARVGYGGNSDYWGQGTLVTVSS VL: DIQMTQSPSSVSASVGDRLTIICRASQDINRWLAWYQQTPGNAPKLLIHSATSLQSGVPSRFSGSGSGTDFTLTINSLQPEDFATYYCQQADSFPLTFGGGTKVEIK | 0.85 fold
XPA23 heavy chain I51T (Fab, V domains shown, Fab, periplasmic extract; also called C5A I51T) VH: EVQLLESGGGLVQPGGSLRLSCAASGFTFSKYFMFWVRQAPGKGLEWVSVTSPSGGMTRYADSVKGRFTISRDNSKNTLYLQMNSLRAEDTAVYYCARVGYGGNSDYWGQGTLVTVSS VL: DIQMTQSPSSVSASVGDRLTIICRASQDINRWLAWYQQTPGNAPKLLIHSATSLQSGVPSRFSGSGSGTDFTLTINSLQPEDFATYYCQQADSFPLTFGGGTKVEIK | 0.86 fold
XPA23 heavy chain G103A (Fab, V domains shown, Fab, periplasmic extract; also called C5A G103A) VH: EVQLLESGGGLVQPGGSLRLSCAASGFTFSKYFMFWVRQAPGKGLEWVSVISPSGGMTRYADSVKGRFTISRDNSKNTLYLQMNSLRAEDTAVYYCARVGYGANSDYWGQGTLVTVSS VL: DIQMTQSPSSVSASVGDRLTIICRASQDINRWLAWYQQTPGNAPKLLIHSATSLQSGVPSRFSGSGSGTDFTLTINSLQPEDFATYYCQQADSFPLTFGGGTKVEIK | 0.03 fold

Results, then the binder that gave them:

fold difference in affinity against the original | Binder
1.08 fold | XPA23 heavy chain K31L (Fab, V domains shown, Fab, periplasmic extract; also called C5A K31L) VH: EVQLLESGGGLVQPGGSLRLSCAASGFTFSLYFMFWVRQAPGKGLEWVSVISPSGGMTRYADSVKGRFTISRDNSKNTLYLQMNSLRAEDTAVYYCARVGYGGNSDYWGQGTLVTVSS VL: DIQMTQSPSSVSASVGDRLTIICRASQDINRWLAWYQQTPGNAPKLLIHSATSLQSGVPSRFSGSGSGTDFTLTINSLQPEDFATYYCQQADSFPLTFGGGTKVEIK
1.61 fold | XPA23 heavy chain N104A (Fab, V domains shown, Fab, periplasmic extract; also called C5A N104A) VH: EVQLLESGGGLVQPGGSLRLSCAASGFTFSKYFMFWVRQAPGKGLEWVSVISPSGGMTRYADSVKGRFTISRDNSKNTLYLQMNSLRAEDTAVYYCARVGYGGASDYWGQGTLVTVSS VL: DIQMTQSPSSVSASVGDRLTIICRASQDINRWLAWYQQTPGNAPKLLIHSATSLQSGVPSRFSGSGSGTDFTLTINSLQPEDFATYYCQQADSFPLTFGGGTKVEIK
0.74 fold | XPA23 heavy chain K31I (Fab, V domains shown, Fab, periplasmic extract; also called C5A K31I) VH: EVQLLESGGGLVQPGGSLRLSCAASGFTFSIYFMFWVRQAPGKGLEWVSVISPSGGMTRYADSVKGRFTISRDNSKNTLYLQMNSLRAEDTAVYYCARVGYGGNSDYWGQGTLVTVSS VL: DIQMTQSPSSVSASVGDRLTIICRASQDINRWLAWYQQTPGNAPKLLIHSATSLQSGVPSRFSGSGSGTDFTLTINSLQPEDFATYYCQQADSFPLTFGGGTKVEIK
0.99 fold | XPA23 heavy chain I51V (Fab, V domains shown, Fab, periplasmic extract; also called C5A I51V) VH: EVQLLESGGGLVQPGGSLRLSCAASGFTFSKYFMFWVRQAPGKGLEWVSVVSPSGGMTRYADSVKGRFTISRDNSKNTLYLQMNSLRAEDTAVYYCARVGYGGNSDYWGQGTLVTVSS VL: DIQMTQSPSSVSASVGDRLTIICRASQDINRWLAWYQQTPGNAPKLLIHSATSLQSGVPSRFSGSGSGTDFTLTINSLQPEDFATYYCQQADSFPLTFGGGTKVEIK
0.03 fold | XPA23 heavy chain M57I (Fab, V domains shown, Fab, periplasmic extract; also called C5A M57I) VH: EVQLLESGGGLVQPGGSLRLSCAASGFTFSKYFMFWVRQAPGKGLEWVSVISPSGGITRYADSVKGRFTISRDNSKNTLYLQMNSLRAEDTAVYYCARVGYGGNSDYWGQGTLVTVSS VL: DIQMTQSPSSVSASVGDRLTIICRASQDINRWLAWYQQTPGNAPKLLIHSATSLQSGVPSRFSGSGSGTDFTLTINSLQPEDFATYYCQQADSFPLTFGGGTKVEIK
0.03 fold | XPA23 heavy chain M57V (Fab, V domains shown, Fab, periplasmic extract; also called C5A M57V) VH: EVQLLESGGGLVQPGGSLRLSCAASGFTFSKYFMFWVRQAPGKGLEWVSVISPSGGVTRYADSVKGRFTISRDNSKNTLYLQMNSLRAEDTAVYYCARVGYGGNSDYWGQGTLVTVSS VL: DIQMTQSPSSVSASVGDRLTIICRASQDINRWLAWYQQTPGNAPKLLIHSATSLQSGVPSRFSGSGSGTDFTLTINSLQPEDFATYYCQQADSFPLTFGGGTKVEIK
0.06 fold | XPA23 heavy chain M57L (Fab, V domains shown, Fab, periplasmic extract; also called C5A M57L) VH: EVQLLESGGGLVQPGGSLRLSCAASGFTFSKYFMFWVRQAPGKGLEWVSVISPSGGLTRYADSVKGRFTISRDNSKNTLYLQMNSLRAEDTAVYYCARVGYGGNSDYWGQGTLVTVSS VL: DIQMTQSPSSVSASVGDRLTIICRASQDINRWLAWYQQTPGNAPKLLIHSATSLQSGVPSRFSGSGSGTDFTLTINSLQPEDFATYYCQQADSFPLTFGGGTKVEIK
1.21 fold | XPA23 heavy chain N104G (Fab, V domains shown, Fab, periplasmic extract; also called C5A N104G) VH: EVQLLESGGGLVQPGGSLRLSCAASGFTFSKYFMFWVRQAPGKGLEWVSVISPSGGMTRYADSVKGRFTISRDNSKNTLYLQMNSLRAEDTAVYYCARVGYGGGSDYWGQGTLVTVSS VL: DIQMTQSPSSVSASVGDRLTIICRASQDINRWLAWYQQTPGNAPKLLIHSATSLQSGVPSRFSGSGSGTDFTLTINSLQPEDFATYYCQQADSFPLTFGGGTKVEIK
0.06 fold | XPA23 heavy chain M57T (Fab, V domains shown, Fab, periplasmic extract; also called C5A M57T) VH: EVQLLESGGGLVQPGGSLRLSCAASGFTFSKYFMFWVRQAPGKGLEWVSVISPSGGTTRYADSVKGRFTISRDNSKNTLYLQMNSLRAEDTAVYYCARVGYGGNSDYWGQGTLVTVSS VL: DIQMTQSPSSVSASVGDRLTIICRASQDINRWLAWYQQTPGNAPKLLIHSATSLQSGVPSRFSGSGSGTDFTLTINSLQPEDFATYYCQQADSFPLTFGGGTKVEIK
0.03 fold | XPA23 heavy chain M57A (Fab, V domains shown, Fab, periplasmic extract; also called C5A M57A) VH: EVQLLESGGGLVQPGGSLRLSCAASGFTFSKYFMFWVRQAPGKGLEWVSVISPSGGATRYADSVKGRFTISRDNSKNTLYLQMNSLRAEDTAVYYCARVGYGGNSDYWGQGTLVTVSS VL: DIQMTQSPSSVSASVGDRLTIICRASQDINRWLAWYQQTPGNAPKLLIHSATSLQSGVPSRFSGSGSGTDFTLTINSLQPEDFATYYCQQADSFPLTFGGGTKVEIK
0.81 fold | XPA23 heavy chain K31V (Fab, V domains shown, Fab, periplasmic extract; also called C5A K31V) VH: EVQLLESGGGLVQPGGSLRLSCAASGFTFSVYFMFWVRQAPGKGLEWVSVISPSGGMTRYADSVKGRFTISRDNSKNTLYLQMNSLRAEDTAVYYCARVGYGGNSDYWGQGTLVTVSS VL: DIQMTQSPSSVSASVGDRLTIICRASQDINRWLAWYQQTPGNAPKLLIHSATSLQSGVPSRFSGSGSGTDFTLTINSLQPEDFATYYCQQADSFPLTFGGGTKVEIK
